How the values were obtained:
[1] = molecular target: ATP-binding cassette A1 (human (endogenous in THP-1)) (UniProt O95477)
[2] = molecular target: ATP-binding cassette G1 (human (endogenous in THP-1)) (UniProt P45844)

Chain of UniProt O95477 (O95477 whole entry): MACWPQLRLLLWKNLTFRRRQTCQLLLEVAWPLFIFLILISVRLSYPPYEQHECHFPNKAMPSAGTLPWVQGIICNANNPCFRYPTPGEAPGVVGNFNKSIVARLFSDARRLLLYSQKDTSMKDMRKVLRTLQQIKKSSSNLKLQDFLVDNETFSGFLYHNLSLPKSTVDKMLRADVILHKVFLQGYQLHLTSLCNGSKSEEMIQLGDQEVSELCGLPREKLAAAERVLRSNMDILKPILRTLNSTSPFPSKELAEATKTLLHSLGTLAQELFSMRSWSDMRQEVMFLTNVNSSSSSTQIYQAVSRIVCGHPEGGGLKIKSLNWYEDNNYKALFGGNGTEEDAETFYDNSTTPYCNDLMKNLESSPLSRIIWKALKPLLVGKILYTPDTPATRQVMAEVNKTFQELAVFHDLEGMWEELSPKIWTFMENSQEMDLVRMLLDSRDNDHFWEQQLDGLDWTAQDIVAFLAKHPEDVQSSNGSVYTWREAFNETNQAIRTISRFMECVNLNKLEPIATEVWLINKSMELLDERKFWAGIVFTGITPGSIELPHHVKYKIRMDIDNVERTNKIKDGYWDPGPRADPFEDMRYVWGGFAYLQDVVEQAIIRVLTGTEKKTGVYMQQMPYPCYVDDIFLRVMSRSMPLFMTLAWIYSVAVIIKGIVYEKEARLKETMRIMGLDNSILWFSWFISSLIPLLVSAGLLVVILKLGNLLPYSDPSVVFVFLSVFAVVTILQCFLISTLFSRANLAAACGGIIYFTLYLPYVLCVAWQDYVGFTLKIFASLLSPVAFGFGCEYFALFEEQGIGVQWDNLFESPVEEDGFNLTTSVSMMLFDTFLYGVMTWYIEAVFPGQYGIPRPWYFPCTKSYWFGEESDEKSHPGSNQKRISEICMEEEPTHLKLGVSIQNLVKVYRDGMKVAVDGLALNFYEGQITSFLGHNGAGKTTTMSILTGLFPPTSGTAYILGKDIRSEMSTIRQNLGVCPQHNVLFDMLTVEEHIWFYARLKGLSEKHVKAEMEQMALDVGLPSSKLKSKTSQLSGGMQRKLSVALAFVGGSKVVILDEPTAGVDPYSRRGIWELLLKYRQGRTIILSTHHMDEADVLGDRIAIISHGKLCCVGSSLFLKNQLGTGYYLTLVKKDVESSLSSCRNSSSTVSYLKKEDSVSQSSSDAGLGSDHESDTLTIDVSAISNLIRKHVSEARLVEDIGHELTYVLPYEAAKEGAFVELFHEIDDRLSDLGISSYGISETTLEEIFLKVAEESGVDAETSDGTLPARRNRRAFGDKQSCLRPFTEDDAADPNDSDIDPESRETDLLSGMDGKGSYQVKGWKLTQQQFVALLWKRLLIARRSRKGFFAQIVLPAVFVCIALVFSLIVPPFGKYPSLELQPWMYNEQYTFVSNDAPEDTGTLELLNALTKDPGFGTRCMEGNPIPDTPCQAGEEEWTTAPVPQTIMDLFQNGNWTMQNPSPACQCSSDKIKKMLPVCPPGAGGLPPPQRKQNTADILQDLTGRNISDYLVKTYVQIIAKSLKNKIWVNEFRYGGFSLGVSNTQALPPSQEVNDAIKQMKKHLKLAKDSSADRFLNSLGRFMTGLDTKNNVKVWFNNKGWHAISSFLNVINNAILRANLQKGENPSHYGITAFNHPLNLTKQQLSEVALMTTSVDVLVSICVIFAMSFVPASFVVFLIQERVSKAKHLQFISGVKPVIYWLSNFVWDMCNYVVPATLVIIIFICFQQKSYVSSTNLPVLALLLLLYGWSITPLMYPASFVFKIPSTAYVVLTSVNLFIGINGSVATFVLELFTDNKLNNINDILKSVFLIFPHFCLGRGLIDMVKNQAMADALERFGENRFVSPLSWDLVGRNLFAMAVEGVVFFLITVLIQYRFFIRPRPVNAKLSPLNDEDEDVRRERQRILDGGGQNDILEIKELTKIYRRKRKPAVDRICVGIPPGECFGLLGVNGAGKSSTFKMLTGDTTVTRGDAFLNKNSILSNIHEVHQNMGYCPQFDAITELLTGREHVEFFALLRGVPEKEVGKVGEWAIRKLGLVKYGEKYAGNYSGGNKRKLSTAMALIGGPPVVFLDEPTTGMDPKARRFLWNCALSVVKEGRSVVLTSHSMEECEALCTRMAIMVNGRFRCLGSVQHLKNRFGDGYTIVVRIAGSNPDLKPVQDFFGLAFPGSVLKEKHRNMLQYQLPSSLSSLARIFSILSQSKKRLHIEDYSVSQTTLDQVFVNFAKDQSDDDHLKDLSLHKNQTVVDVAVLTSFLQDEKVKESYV

**Q.** What does the source list for “human apoA-1 from human plasma (from UniProt P02647 19-267) (ligand)”?
**A.** cholesterol efflux from [H^3]-cholesterol-loaded THP-1 macrophages to apoA-I (10 μg/ml) after heat-killed L. acidophilus K301; no effect in the absence of apoA-I [1]: 2.3 fold; cholesterol efflux from [H^3]-cholesterol-loaded THP-1 macrophages to apoA-I (10 μg/ml) after heat-killed L. acidophilus K301; no effect in the absence of apoA-I [2]: 2.3 fold
